Assay results reported in the RNAGym collection of RNA variant scans (doi:10.7554/elife.80360).

B1: Hairpin Ribozyme (parent)
chain: GUCCUCUUUCACGUGCGCGUGAAAGAGAGAAGUGAACCAGAGAAACACACGUUGUGGUAUAUUACCUGGUA

Variants of: B1
Test: self-cleavage, relative activity (ratio to wild type); higher = more cleavage; co-transcriptional

Compared with A35U A44U, G34U U58A is higher in self-cleavage: 0.0832 for the first, 1.5 for the second.

First: A36C A41C
Second: A36C A41U
The self-cleavage of the first is lower: 0.401 for the first, 0.92 for the second.

First: G34C A49G
Second: G34A C66A
The self-cleavage of the first is higher: 1.42 for the first, 0.469 for the second.

Compared with A36C C48U, A35G G57C is higher in self-cleavage: 0.0598 for the first, 0.268 for the second.

Compared with G34A G69U, A36G C65G is lower in self-cleavage: 0.208 for the first, 0.138 for the second.

Going from A36G C65U to A35U A49U, the self-cleavage falls from 0.267 to 0.155.

Going from A35U G40A to A35U G40C, the self-cleavage rises from 0.154 to 0.185.

First: A35G C48A
Second: A35U C66A
The self-cleavage of the first is higher: 0.198 for the first, 0.154 for the second.

Going from A36U G69C to A36U G69U, the self-cleavage rises from 0.127 to 0.228.

Going from A36U G69A to A35U A39U, the self-cleavage rises from 0.173 to 0.391.

Compared with A35U A39G, A36G A43G is lower in self-cleavage: 0.433 for the first, 0.0267 for the second.

First: A36U U53C
Second: A35U A43U
The self-cleavage of the first is higher: 0.593 for the first, 0.0408 for the second.

Compared with A35U U55G, A35U U55C is lower in self-cleavage: 0.281 for the first, 0.274 for the second.

Compared with G34C A43G, A36C A39U is higher in self-cleavage: 0.0982 for the first, 0.137 for the second.

First: A36C A39G
Second: A35G G68C
The self-cleavage of the first is higher: 0.363 for the first, 0.236 for the second.

Compared with A35G G54C, A36G G68A is lower in self-cleavage: 0.444 for the first, 0.306 for the second.

Going from A36G G68U to A35U U62C, the self-cleavage falls from 0.237 to 0.0853.

Compared with A35U U62G, A35G A71G is higher in self-cleavage: 0 for the first, 0.542 for the second.

Compared with A35G A71C, A36C U63C is lower in self-cleavage: 1.16 for the first, 0.259 for the second.

Compared with A36U C50A, G34U A45C is lower in self-cleavage: 0.242 for the first, 0.213 for the second.

Compared with A36G G51A, A36C C37U is lower in self-cleavage: 0.943 for the first, 0.148 for the second.

Compared with A36C C37A, A36U A49G is higher in self-cleavage: 0.185 for the first, 0.281 for the second.

Going from A36G A39U to A36G A39G, the self-cleavage falls from 0.517 to 0.513.

Going from A35U A59U to A36G U70C, the self-cleavage rises from 0.117 to 1.35.

First: A36G U70A
Second: C37A C65G
The self-cleavage of the first is higher: 1.11 for the first, 0.124 for the second.

First: A35G A43C
Second: A35U A41G
The self-cleavage of the first is lower: 0.118 for the first, 0.599 for the second.

Compared with A35U A41C, A36C G54U is lower in self-cleavage: 0.957 for the first, 0.33 for the second.

First: A36C G54A
Second: A36C G54C
The self-cleavage of the first is higher: 0.467 for the first, 0.327 for the second.

First: A36C C66A
Second: A35G G51C
The self-cleavage of the first is lower: 0.268 for the first, 0.689 for the second.

First: A36C U52G
Second: A36C U52A
The self-cleavage of the first is lower: 0.558 for the first, 0.768 for the second.

Going from A36U A61U to A36U A61G, the self-cleavage falls from 0.213 to 0.156.

First: A36U C65A
Second: G34C U55C
The self-cleavage of the first is lower: 0.502 for the first, 1.19 for the second.

Compared with C37A G42U, A35U A47C is higher in self-cleavage: 0.165 for the first, 0.258 for the second.

First: G34U G51U
Second: A35C G57A
The self-cleavage of the first is higher: 1.04 for the first, 0.0715 for the second.

Compared with G34C U67G, A36C U60G is lower in self-cleavage: 0.517 for the first, 0.361 for the second.

Compared with A36C U60C, A35G A49C is lower in self-cleavage: 0.794 for the first, 0.12 for the second.

Going from A35G A49G to A36C U67A, the self-cleavage falls from 0.433 to 0.174.

Compared with A36C U67G, A36C U67C is lower in self-cleavage: 0.175 for the first, 0.102 for the second.

Compared with A36C U55C, A36G A45C is higher in self-cleavage: 0.0703 for the first, 0.189 for the second.

First: G34A U70C
Second: A35U G69C
The self-cleavage of the first is higher: 1.05 for the first, 0.368 for the second.

First: C37A C48U
Second: C37A C48G
The self-cleavage of the first is lower: 0.0819 for the first, 0.143 for the second.

Going from A36U C66G to A36U C66U, the self-cleavage falls from 0.338 to 0.166.
